In publication PMC10173608:
Where “and” joins values, the source holds several entries; their conditions need not be identical. Equal values may be shown once.

Target: GFP-tagged TDP-43-ΔNLS-KQ (GFP-TDP43-ΔNLS-K145Q, pTX066) (human) (UniProt Q13148)
Experiment: non-reducing SDS-PAGE and immunoblot of immunoprecipitated aggregates

## GFP-tagged TDP-43-ΔNLS-KQ (GFP-TDP43-ΔNLS-K145Q, pTX066) (from UniProt Q13148 1-414) (natural protein)
  stoichiometry N: 2 and 4
